From PMC12115719

Molecular target: Syngnathus scovelli chapparvovirus (SsChPV) VP, capsid protein (Syngnathus scovelli chapparvovirus)
Assay: cryo-EM structure

Syngnathus scovelli chapparvovirus (SsChPV) VP, capsid protein (natural protein)
stoichiometry N: 60
